Legend:
[1] = biological target: Wildtype, full-length human Gαi1 (human, UniProt P63096 1-354); experiment: SPR
Gαi1(R178M/A326S) = Gαi1(R178M/A326S) (human, UniProt P63096 1-354, R178M | A326S); experiment: SPR
Chain of Gαi1(R178M/A326S) (P63096 whole entry R178M/A326S): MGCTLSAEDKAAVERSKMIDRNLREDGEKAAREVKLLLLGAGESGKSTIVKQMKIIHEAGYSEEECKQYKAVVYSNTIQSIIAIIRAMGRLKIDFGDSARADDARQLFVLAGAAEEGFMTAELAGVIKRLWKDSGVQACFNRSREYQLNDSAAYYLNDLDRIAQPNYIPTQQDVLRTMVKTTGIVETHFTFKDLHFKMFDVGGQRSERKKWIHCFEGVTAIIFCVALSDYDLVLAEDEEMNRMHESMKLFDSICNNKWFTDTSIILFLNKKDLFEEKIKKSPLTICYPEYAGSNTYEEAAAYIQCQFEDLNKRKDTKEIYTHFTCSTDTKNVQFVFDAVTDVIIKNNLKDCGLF

Chain of Wildtype, full-length human Gαi1 (P63096 whole entry): as the sequence (P63096 whole entry R178M/A326S) above, with M178R, S326A counted along it

Kd [1]: 124 nM
Kd (Gαi1(R178M/A326S)): 115 nM
B1: RGS16 (natural protein, human, UniProt O15492 1-202, looked up)
chain: MCRTLAAFPTTCLERAKEFKTRLGIFLHKSELGCDTGSTGKFEWGSKHSKENRNFSEDVLGWRESFDLLLSSKNGVAAFHAFLKTEFSEENLEFWLACEEFKKIRSATKLASRAHQIFEEFICSEAPKEVNIDHETHELTRMNLQTATATCFDAAQGKTRTLMEKDSYPRFLKSPAYRDLAAQASAASATLSSCSLDEPSHT
